{"source": "paper PMC7845616", "about": "“Convergent Evolution of a Promiscuous 3-Hydroxypropionyl-CoA Dehydratase/Crotonyl-CoA Hydratase in Crenarchaeota and Thaumarchaeota” (mSphere, 2021)", "key": {"[1]": {"substrate": "C/C=C/C(=O)SCCNC(=O)CCNC(=O)[C@H](O)C(C)(C)COP(=O)(O)OP(=O)(O)OC[C@H]1O[C@@H](n2cnc3c(N)ncnc32)[C@H](O)[C@@H]1OP(=O)(O)O", "experiment": "UHPLC of 3-hydroxybutyryl-CoA formed", "assay_type": "biochemical, Syntrophothermus lipocalidus", "details": "100 mM Tris-HCl pH 7.8, 42°C", "excerpt": "UHPLC of 3-hydroxybutyryl-CoA formed on Slip_2089"}, "[2]": {"substrate": "CC(C)(COP(=O)(O)OP(=O)(O)OC[C@H]1O[C@@H](n2cnc3c(N)ncnc32)[C@H](O)[C@@H]1OP(=O)(O)O)[C@@H](O)C(=O)NCCC(=O)NCCSC(=O)CCO", "experiment": "dehydration coupled to Ccr, UHPLC", "assay_type": "biochemical, Syntrophothermus lipocalidus", "details": "100 mM Tris-HCl pH 7.8, 42°C, 1 mM NADPH, 50 mM NaHCO3, Ccr", "excerpt": "(§1) dehydration coupled to Ccr, UHPLC on Slip_2089"}, "[3]": {"substrate": "C[C@H](O)CC(=O)SCCNC(=O)CCNC(=O)[C@H](O)C(C)(C)COP(=O)(O)OP(=O)(O)OC[C@H]1O[C@@H](n2cnc3c(N)ncnc32)[C@H](O)[C@@H]1OP(=O)(O)O", "experiment": "dehydration coupled to Ccr, UHPLC", "assay_type": "biochemical, Syntrophothermus lipocalidus", "details": "100 mM Tris-HCl pH 7.8, 42°C, 1 mM NADPH, 50 mM NaHCO3, Ccr", "excerpt": "as §1"}, "[4]": {"substrate": "C=CC(=O)SCCNC(=O)CCNC(=O)[C@H](O)C(C)(C)COP(=O)(O)OP(=O)(O)OC[C@H]1O[C@@H](n2cnc3c(N)ncnc32)[C@H](O)[C@@H]1OP(=O)(O)O", "experiment": "UHPLC of 3-hydroxypropionyl-CoA formed", "assay_type": "biochemical, Syntrophothermus lipocalidus", "details": "100 mM Tris-HCl pH 7.8, 42°C", "excerpt": "UHPLC of 3-hydroxypropionyl-CoA formed on Slip_2089"}, "[5]": {"substrate": "C=C(C)C(=O)SCCNC(=O)CCNC(=O)[C@H](O)C(C)(C)COP(=O)(O)OP(=O)(O)OC[C@H]1O[C@@H](n2cnc3c(N)ncnc32)[C@H](O)[C@@H]1OP(=O)(O)O", "experiment": "UHPLC of 3-hydroxy-2-methylpropionyl-CoA formed", "assay_type": "biochemical, Syntrophothermus lipocalidus", "details": "100 mM Tris-HCl pH 7.8, 42°C", "excerpt": "UHPLC of 3-hydroxy-2-methylpropionyl-CoA formed on Slip_2089"}, "[6]": {"substrate": "CCCCC/C=C/C(=O)SCCNC(=O)CCNC(=O)[C@H](O)C(C)(C)COP(=O)(O)OP(=O)(O)OC[C@H]1O[C@@H](n2cnc3c(N)ncnc32)[C@H](O)[C@@H]1OP(=O)(O)O", "experiment": "UHPLC of 3-hydroxyoctanoyl-CoA formed", "assay_type": "biochemical, Syntrophothermus lipocalidus", "details": "100 mM Tris-HCl pH 7.8, 42°C", "excerpt": "UHPLC of 3-hydroxyoctanoyl-CoA formed on Slip_2089"}, "[7]": {"substrate": "C=CC(=O)SCCNC(=O)CCNC(=O)[C@H](O)C(C)(C)COP(=O)(O)OP(=O)(O)OC[C@H]1O[C@@H](n2cnc3c(N)ncnc32)[C@H](O)[C@@H]1OP(=O)(O)O", "experiment": "UHPLC of 3-hydroxypropionyl-CoA formed", "assay_type": "biochemical, Nitrosopumilus maritimus", "details": "100 mM Tris-HCl pH 7.8, 30°C", "excerpt": "UHPLC of 3-hydroxypropionyl-CoA formed on Nmar_1308"}, "[8]": {"substrate": "C/C=C/C(=O)SCCNC(=O)CCNC(=O)[C@H](O)C(C)(C)COP(=O)(O)OP(=O)(O)OC[C@H]1O[C@@H](n2cnc3c(N)ncnc32)[C@H](O)[C@@H]1OP(=O)(O)O", "experiment": "UHPLC of 3-hydroxybutyryl-CoA formed", "assay_type": "biochemical, Nitrosopumilus maritimus", "details": "100 mM Tris-HCl pH 7.8, 30°C", "excerpt": "UHPLC of 3-hydroxybutyryl-CoA formed on Nmar_1308"}, "[9]": {"substrate": "CC(C)(COP(=O)(O)OP(=O)(O)OC[C@H]1O[C@@H](n2cnc3c(N)ncnc32)[C@H](O)[C@@H]1OP(=O)(O)O)[C@@H](O)C(=O)NCCC(=O)NCCSC(=O)CCO", "experiment": "dehydration coupled to Ccr, UHPLC", "assay_type": "biochemical, Nitrosopumilus maritimus", "details": "100 mM Tris-HCl pH 7.8, 30°C, 1 mM NADPH, 50 mM NaHCO3, Ccr", "excerpt": "(§2) dehydration coupled to Ccr, UHPLC on Nmar_1308"}, "[10]": {"substrate": "C[C@H](O)CC(=O)SCCNC(=O)CCNC(=O)[C@H](O)C(C)(C)COP(=O)(O)OP(=O)(O)OC[C@H]1O[C@@H](n2cnc3c(N)ncnc32)[C@H](O)[C@@H]1OP(=O)(O)O", "experiment": "dehydration coupled to Ccr, UHPLC", "assay_type": "biochemical, Nitrosopumilus maritimus", "details": "100 mM Tris-HCl pH 7.8, 30°C, 1 mM NADPH, 50 mM NaHCO3, Ccr", "excerpt": "as §2"}, "[11]": {"substrate": "CCCCC/C=C/C(=O)SCCNC(=O)CCNC(=O)[C@H](O)C(C)(C)COP(=O)(O)OP(=O)(O)OC[C@H]1O[C@@H](n2cnc3c(N)ncnc32)[C@H](O)[C@@H]1OP(=O)(O)O", "experiment": "UHPLC of 3-hydroxyoctanoyl-CoA formed", "assay_type": "biochemical, Nitrosopumilus maritimus", "details": "100 mM Tris-HCl pH 7.8, 30°C", "excerpt": "UHPLC of 3-hydroxyoctanoyl-CoA formed on Nmar_1308"}}}
{"protein": "Slip_2089 (Syntrophothermus lipocalidus DSM 12680) (protein, pET16b, His10-tagged, expressed in E. coli Rosetta 2 (DE3), Ni-NTA purified) MEDKQKSVKCSIDDQGIAIVTINRPHALNALNREVFTELGKVFDELRDNPRARVVVLTGEGQKAFAAGSDITEMKECSVLEAREFAMLANRTQGKIETFPKPVIAAVNGFALGGGCEVAMACDIRIASSNAKFGQPEINLGIIPGGGGTQRLARLVGLGRAKELVYSGGIIDAQRAYEIGLVNKVVPAEALMSEALGLAAKIASKSMPVLMLAKVAFNHGFSMDLDKALQFEIECFAECFGTDDHTEGMSAFIERREPAFKDK", "values": [{"measurement": "Km", "setting": "[1]", "value": "160 ± 20", "unit": "µM"}, {"measurement": "kcat/Km", "setting": "[1]", "value": 143000, "unit": "M⁻¹ s⁻¹"}, {"measurement": "Km", "setting": "[2]", "value": "350 ± 60", "unit": "µM"}, {"measurement": "kcat/Km", "setting": "[2]", "value": 2000, "unit": "M⁻¹ s⁻¹"}, {"measurement": "Km", "setting": "[3]", "value": "1310 ± 310", "unit": "µM"}, {"measurement": "kcat/Km", "setting": "[3]", "value": 41000, "unit": "M⁻¹ s⁻¹"}, {"measurement": "Km", "setting": "[4]", "value": "400 ± 50", "unit": "µM"}, {"measurement": "kcat/Km", "setting": "[4]", "value": 138000, "unit": "M⁻¹ s⁻¹"}, {"measurement": "Km", "setting": "[5]", "value": "1010 ± 220", "unit": "µM"}, {"measurement": "kcat/Km", "setting": "[5]", "value": 500, "unit": "M⁻¹ s⁻¹"}, {"measurement": "Km", "setting": "[6]", "value": "210 ± 40", "unit": "µM"}, {"measurement": "kcat/Km", "setting": "[6]", "value": 562000, "unit": "M⁻¹ s⁻¹"}]}
{"protein": "Nmar_1308 (Nitrosopumilus maritimus SCM1) (protein, pET16b, His10-tagged, expressed in E. coli Rosetta 2 (DE3), Ni-NTA purified) MSLVTTSTSDGICTVKINRPDKLNAMNTDVAKELIKTFEELNHNDDVKVIILTGEGEKAFSAGADIEYMSKISADESVEYAKTGQLVTATVELVKQPTIAAVNGFALGGGCELAMSCDIRIAADTAKLGQPEVTIGVPPGWGGTQRLMRIVGIAKAKELVYTGKMIKAEEAKEIGLVNHVVPLASLQEEALKMAQQIAGNSTMGVQMSKVAINKGRNADLDTGLGLEILAWRNCFTHPDRQERMTAFVNKSKK", "values": [{"measurement": "Km", "setting": "[7]", "value": "710 ± 70", "unit": "µM"}, {"measurement": "Vmax", "setting": "[7]", "value": "11400 ± 392", "unit": "µmol/min/mg"}, {"measurement": "kcat/Km", "setting": "[7]", "value": "8.09e+06", "unit": "M⁻¹ s⁻¹"}, {"measurement": "Km", "setting": "[8]", "value": "450 ± 30", "unit": "µM"}, {"measurement": "Vmax", "setting": "[8]", "value": "3790 ± 111", "unit": "µmol/min/mg"}, {"measurement": "kcat/Km", "setting": "[8]", "value": "4.25e+06", "unit": "M⁻¹ s⁻¹"}, {"measurement": "Km", "setting": "[9]", "value": "170 ± 30", "unit": "µM"}, {"measurement": "Vmax", "setting": "[9]", "value": 38, "unit": "µmol/min/mg"}, {"measurement": "kcat/Km", "setting": "[9]", "value": 113000, "unit": "M⁻¹ s⁻¹"}, {"measurement": "Km", "setting": "[10]", "value": "360 ± 60", "unit": "µM"}, {"measurement": "Vmax", "setting": "[10]", "value": "1520 ± 92", "unit": "µmol/min/mg"}, {"measurement": "kcat/Km", "setting": "[10]", "value": "2.12e+06", "unit": "M⁻¹ s⁻¹"}, {"measurement": "Km", "setting": "[11]", "value": "120 ± 20", "unit": "µM"}, {"measurement": "Vmax", "setting": "[11]", "value": 47, "unit": "µmol/min/mg"}, {"measurement": "kcat/Km", "setting": "[11]", "value": 198000, "unit": "M⁻¹ s⁻¹"}]}
